Measurements from patent US20250152729A1 (CANCER RESEARCH TECHNOLOGY, published 2025).

T1: human SEMA4B expressed on expi293 cells (human, UniProt Q9NPR2 44-837)
T1 construct: whole, on cells
T1 sequence (looked up): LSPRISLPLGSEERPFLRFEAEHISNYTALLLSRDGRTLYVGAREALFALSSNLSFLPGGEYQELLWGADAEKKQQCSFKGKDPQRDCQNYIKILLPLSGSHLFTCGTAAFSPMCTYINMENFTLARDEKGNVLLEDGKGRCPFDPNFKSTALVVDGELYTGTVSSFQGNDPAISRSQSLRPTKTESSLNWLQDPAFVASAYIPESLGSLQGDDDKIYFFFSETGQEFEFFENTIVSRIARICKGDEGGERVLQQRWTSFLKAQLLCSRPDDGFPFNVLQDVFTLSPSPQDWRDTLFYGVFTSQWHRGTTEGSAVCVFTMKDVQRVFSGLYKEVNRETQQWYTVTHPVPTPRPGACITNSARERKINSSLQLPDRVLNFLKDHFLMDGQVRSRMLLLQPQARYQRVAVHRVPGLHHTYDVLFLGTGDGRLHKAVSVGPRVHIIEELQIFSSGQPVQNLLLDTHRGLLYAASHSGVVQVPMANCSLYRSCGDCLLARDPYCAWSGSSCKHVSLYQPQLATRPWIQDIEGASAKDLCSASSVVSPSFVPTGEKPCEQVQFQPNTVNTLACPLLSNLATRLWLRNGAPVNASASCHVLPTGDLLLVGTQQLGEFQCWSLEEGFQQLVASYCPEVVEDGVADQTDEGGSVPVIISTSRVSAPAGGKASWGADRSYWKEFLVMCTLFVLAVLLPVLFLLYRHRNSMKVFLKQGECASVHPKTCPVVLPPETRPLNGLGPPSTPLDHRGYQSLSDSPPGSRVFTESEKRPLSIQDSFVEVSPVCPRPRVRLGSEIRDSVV

T2: cynomolgus SEMA4A expressed on expi293 cells (UniProt ID G7NV79) (cynomolgus, UniProt Q9H3S1 33-761 (human entry))
T2 construct: Transient transfection in expi293 cells; also called cyno SEMA4A
T2 chain: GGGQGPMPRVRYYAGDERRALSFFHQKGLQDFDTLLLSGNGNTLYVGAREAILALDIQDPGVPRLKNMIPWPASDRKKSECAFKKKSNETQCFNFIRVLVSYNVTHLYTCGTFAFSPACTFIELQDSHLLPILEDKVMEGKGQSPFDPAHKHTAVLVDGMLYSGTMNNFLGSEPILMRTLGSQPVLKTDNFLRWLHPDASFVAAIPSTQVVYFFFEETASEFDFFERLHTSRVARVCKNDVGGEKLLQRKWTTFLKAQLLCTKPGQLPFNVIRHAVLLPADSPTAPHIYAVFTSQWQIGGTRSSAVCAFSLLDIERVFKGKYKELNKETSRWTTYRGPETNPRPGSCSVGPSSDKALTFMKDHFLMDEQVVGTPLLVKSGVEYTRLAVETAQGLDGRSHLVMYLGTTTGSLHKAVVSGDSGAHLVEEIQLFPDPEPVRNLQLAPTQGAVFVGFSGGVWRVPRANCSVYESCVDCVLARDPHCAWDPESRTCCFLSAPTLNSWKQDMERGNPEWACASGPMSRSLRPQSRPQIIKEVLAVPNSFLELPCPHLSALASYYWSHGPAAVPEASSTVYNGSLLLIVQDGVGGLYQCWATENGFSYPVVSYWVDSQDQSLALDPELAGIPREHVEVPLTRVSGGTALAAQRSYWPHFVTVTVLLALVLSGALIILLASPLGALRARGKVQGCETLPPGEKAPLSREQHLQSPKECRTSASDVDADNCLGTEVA


How the values were obtained:
[1] = target: T1, human SEMA4B expressed on expi293 cells; assay: Mirrorball direct binding, dilution series on expi293 cells transiently transfected with human SEMA4B, anti-human Alexa Fluor 647
Source text: (§1) Hits from the primary screening were re-formatted into the human Alya IgG1 vector and re-expressed and purified as described in section 4.1. In addition, a single clone was identified that contained an Asparagine deamidation motif (Asn Gly) within its VHCDR2. This potential sequence liability was de-risked by synthesising de novo two clonal variant VH genes (Asn Ala and Gln Gly) and cloning these sequences into the human Alya IgG1 expression vector. To determine the specificity profile of each purified human Alya IgG1, a dilution series was tested for binding to human SEMA4A, mouse SEMA4A, cyno SEMA4A, human SEMA4B and mock transfected cells (transient transfections set up in expi 293 cells.) The five assays employed methods described in section 2.3, using the appropriate cells and substituting the un-purified scFv periplasmic preparation with the recombinant human Alya IgG1 dilution series. Data was analysed as Count x median mean intensity (x FLU).

[2] = target: T2, cynomolgus SEMA4A expressed on expi293 …; assay: Mirrorball direct binding, dilution series on expi293 cells transiently transfected with cyno SEMA4A, anti-human Alexa Fluor 647
Source text: as §1

Binder	binding result [1]	binding result [2]
C0120914 human Alya IgG1 (antibody, V domains shown, Fully human, phage display derived; human IgG1 Alya constant (239iCys, S442C, EU); unconjugated) VH: QVQLQESGPGLVKPSETLSLTCTVSGGSVSSGRYDWSWIRQPPGKGLEWIGHIYYTGITDYNPSLRSRVTISADKPKNQFSLKLNSVTAADTAVYYCARGPFFDPWGQGTMVTVSS VL: QSVLTQPPSVSVAPGQTASLTCGANNIGSKSVQWYQQKPGQAPVLVVYDGSDRPSGIPDRFSGSSSENTATLTISRVEAGDEADYYCQLWDSVTDRPVFGGGTKVTVL	no binding (tested: log (M) -8 (1e-8 M))	
C0120917 human Alya IgG1 (antibody, V domains shown, Fully human, phage display derived; human IgG1 Alya constant (239iCys, S442C, EU); unconjugated) VH: not shown VL: NFMLTQPHSVSESPGKTVTISCTASGDTLDNKYVNWYQVRPGSAPATLIFHYEERDSGVPDRFSGSFDASSNSASLTISGLQTADEADYFCQSYDSKRDNLVVFGGGTKVTVL	no binding (tested: log (M) -8 (1e-8 M))	
C0120905 human Alya IgG1 (antibody, V domains shown, Fully human, phage display derived; human IgG1 Alya constant (239iCys, S442C, EU); unconjugated) VH: not shown VL: NFMLTQPHSVSESPGKTVTISCTGSGGNIVDNFVQWHQQRPGSAPRTVIYEDDQRPSGVPDRFSASVDSSSNSGTLSISGLKTEDEADYYCQSYDGANRWVFGGGTKLTVL	no binding (tested: log (M) -8 (1e-8 M))	
C0120918 human Alya IgG1 (antibody, V domains shown, Fully human, phage display derived; human IgG1 Alya constant (239iCys, S442C, EU); unconjugated) VH: not shown VL: SYELTQPPSVSVSPGQTARITCSGDALPKQYAYWYQQKPGQAPVLVIYKDSERPSGIPERFSGSSSGTTVTLTISGVQAEDEADYYCQSADSSGTWVFGGGTKVTVL	no binding (tested: log (M) -8 (1e-8 M))	
5Hg4-5Lg5 human Alya IgG1 (antibody, V domains shown, Humanised 5E3; human IgG1 Alya constant (239iCys, S442C, EU), lambda light chain; purified, unconjugated) VH: QVQLVQSGSELKKPGASVKVSCKASGYTFTDYWMHWVRQAPGQGLEWMGAIDTSDSYTSYNQKFKGRFVFSLDTSVSTAYLQICSLKAEDTAVYYCARDYGNFYYYAMDYWGQGTLVTVSS VL: QSVVTQPPSVSGAPGQRVTISCRSSTGAVTTSNYANWYQQLPGTAPKLLIYGTNNRAPGVPDRFSGSKSGASASLAITGLQAEDEADYYCALWYSNHWVFGGGTKLTVL		binds
5Hg4-5Lg4 human Alya IgG1 (antibody, V domains shown, Humanised 5E3; human IgG1 Alya constant (239iCys, S442C, EU), lambda light chain; purified, unconjugated) VH: QVQLVQSGSELKKPGASVKVSCKASGYTFTDYWMHWVRQAPGQGLEWMGAIDTSDSYTSYNQKFKGRFVFSLDTSVSTAYLQICSLKAEDTAVYYCARDYGNFYYYAMDYWGQGTLVTVSS VL: QSALTQPPSVSGSPGQSVTISCRSSTGAVTTSNYANWYQQPPGTAPKLMIYGTNNRAPGVPDRFSGSKSGNTASLTISGLQAEDEADYYCALWYSNHWVFGGGTKLTVL		binds
C0120906 human Alya IgG1 (antibody, V domains shown, Fully human, phage display derived; human IgG1 Alya constant (239iCys, S442C, EU); unconjugated) VH: EVQLVQSGPEVKKPGASVKISCKASGYKLNDPGVHGVSWVRQAPGQGLEWMGWISTLNGDTRYAQKFQGRVTMATDSSTSTIYMDLRSLKSDDTALYYCARDDYTAIFDFWGRGTLVTVSS VL: QSVLTQPPSVSVAPGQTASITCGGSNIGSQSVHWYQQKPGQAPVLVVYDDSDRPSGIPERFSGSKSGNTASLILSRVEAGDEADYYCQVWDSSTDHHVFGTGTKVTVL	no binding (tested: log (M) -8 (1e-8 M))	
C0120903 human Alya IgG1 (antibody, V domains shown, Fully human, phage display derived; human IgG1 Alya constant (239iCys, S442C, EU); unconjugated) VH: EVQLVQSGAEVKKPGSSMKVSCKASGGTFNSYTINWVRQAPGQGLEWVGGFIPIFGTADYAQKFHGRVAITADESMSTAYMELSSLRSEDTAVYYCARAPLGSEPFDYWGQGTMVTVSS VL: SYVLTQPPSVSVAPGQTARITCGGNNIGSKSVHWYQQKPGQAPVLVVYDDSDRPSGIPERFSGSNSGNTATLTISRVEAGDEADYYCQVWDSSSDHLVFGGGTKLTVL	no binding (tested: log (M) -8 (1e-8 M))	
5Hg2-5Lg1 human Alya IgG1 (antibody, V domains shown, Humanised 5E3; human IgG1 Alya constant (239iCys, S442C, EU), lambda light chain; purified, unconjugated) VH: QVQLVQSGAEVKKPGASVKVSCKASGYTFTDYWMHWVRQAPGQRLEWMGAIDTSDSYTSYNQKFKGRVTITRDTSASTAYMELSSLRSEDTAVYYCARDYGNFYYYAMDYWGQGTLVTVSS VL: QAVVTQEPSLTVSPGGTVTLTCRSSTGAVTTSNYANWFQQKPGQAPRTLIYGTNNRAPWTPARFSGSLLGGKAALTLSGAQPEDEAEYYCALWYSNHWVFGGGTKLTVL		binds
5Hg4-5Lg1 human Alya IgG1 (antibody, V domains shown, Humanised 5E3; human IgG1 Alya constant (239iCys, S442C, EU), lambda light chain; purified, unconjugated) VH: QVQLVQSGSELKKPGASVKVSCKASGYTFTDYWMHWVRQAPGQGLEWMGAIDTSDSYTSYNQKFKGRFVFSLDTSVSTAYLQICSLKAEDTAVYYCARDYGNFYYYAMDYWGQGTLVTVSS VL: QAVVTQEPSLTVSPGGTVTLTCRSSTGAVTTSNYANWFQQKPGQAPRTLIYGTNNRAPWTPARFSGSLLGGKAALTLSGAQPEDEAEYYCALWYSNHWVFGGGTKLTVL		binds
5Hg2-5Lg3 human Alya IgG1 (antibody, V domains shown, Humanised 5E3; human IgG1 Alya constant (239iCys, S442C, EU), lambda light chain; purified, unconjugated) VH: QVQLVQSGAEVKKPGASVKVSCKASGYTFTDYWMHWVRQAPGQRLEWMGAIDTSDSYTSYNQKFKGRVTITRDTSASTAYMELSSLRSEDTAVYYCARDYGNFYYYAMDYWGQGTLVTVSS VL: QTVVTQEPSFSVSPGGTVTLTCRSSTGAVTTSNYANWYQQTPGQAPRTLIYGTNNRAPGVPDRFSGSILGNKAALTITGAQADDESDYYCALWYSNHWVFGGGTKLTVL		binds
5Hg4-5Lg2 human Alya IgG1 (antibody, V domains shown, Humanised 5E3; human IgG1 Alya constant (239iCys, S442C, EU), lambda light chain; purified, unconjugated) VH: QVQLVQSGSELKKPGASVKVSCKASGYTFTDYWMHWVRQAPGQGLEWMGAIDTSDSYTSYNQKFKGRFVFSLDTSVSTAYLQICSLKAEDTAVYYCARDYGNFYYYAMDYWGQGTLVTVSS VL: QAVVTQEPSLTVSPGGTVTLTCRSSTGAVTTSNYANWFQQKPGQAPRTLIYGTNNRAPWTPARFSGSLLGGKAALTLLGAQPEDEAEYYCALWYSNHWVFGGGTKLTVL		binds
5Hg2-5Lg2 human Alya IgG1 (antibody, V domains shown, Humanised 5E3; human IgG1 Alya constant (239iCys, S442C, EU), lambda light chain; purified, unconjugated) VH: QVQLVQSGAEVKKPGASVKVSCKASGYTFTDYWMHWVRQAPGQRLEWMGAIDTSDSYTSYNQKFKGRVTITRDTSASTAYMELSSLRSEDTAVYYCARDYGNFYYYAMDYWGQGTLVTVSS VL: QAVVTQEPSLTVSPGGTVTLTCRSSTGAVTTSNYANWFQQKPGQAPRTLIYGTNNRAPWTPARFSGSLLGGKAALTLLGAQPEDEAEYYCALWYSNHWVFGGGTKLTVL		binds
5Hg1-5Lg1 human Alya IgG1 (antibody, V domains shown, Humanised 5E3; human IgG1 Alya constant (239iCys, S442C, EU), lambda light chain; purified, unconjugated) VH: QVQLVQSGAEVKKPGASVKVSCKASGYTFTDYWMHWVRQAPGQGLEWMGAIDTSDSYTSYNQKFKGRVTMTRDTSTSTVYMELSSLRSEDTAVYYCARDYGNFYYYAMDYWGQGTLVTVSS VL: QAVVTQEPSLTVSPGGTVTLTCRSSTGAVTTSNYANWFQQKPGQAPRTLIYGTNNRAPWTPARFSGSLLGGKAALTLSGAQPEDEAEYYCALWYSNHWVFGGGTKLTVL		binds
5Hg1-5Lg2 human Alya IgG1 (antibody, V domains shown, Humanised 5E3; human IgG1 Alya constant (239iCys, S442C, EU), lambda light chain; purified, unconjugated) VH: QVQLVQSGAEVKKPGASVKVSCKASGYTFTDYWMHWVRQAPGQGLEWMGAIDTSDSYTSYNQKFKGRVTMTRDTSTSTVYMELSSLRSEDTAVYYCARDYGNFYYYAMDYWGQGTLVTVSS VL: QAVVTQEPSLTVSPGGTVTLTCRSSTGAVTTSNYANWFQQKPGQAPRTLIYGTNNRAPWTPARFSGSLLGGKAALTLLGAQPEDEAEYYCALWYSNHWVFGGGTKLTVL		binds
